Data as given in IntAct's records for PubMed 19229295.

B1: Bone morphogenetic protein receptor type-1B (Homo sapiens), O00238 (parent)
chain: MLLRSAGKLNVGTKKEDGESTAPTPRPKVLRCKCHHHCPEDSVNNICSTDGYCFTMIEEDDSGLPVVTSGCLGLEGSDFQCRDTPIPHQRRSIECCTERNECNKDLHPTLPPLKNRDFVDGPIHHRALLISVTVCSLLLVLIILFCYFRYKRQETRPRYSIGLEQDETYIPPGESLRDLIEQSQSSGSGSGLPLLVQRTIAKQIQMVKQIGKGRYGEVWMGKWRGEKVAVKVFFTTEEASWFRETEIYQTVLMRHENILGFIAADIKGTGSWTQLYLITDYHENGSLYDYLKSTTLDAKSMLKLAYSSVSGLCHLHTEIFSTQGKPAIAHRDLKSKNILVKKNGTCCIADLGLAVKFISDTNEVDIPPNTRVGTKRYMPPEVLDESLNRNHFQSYIMADMYSFGLILWEVARRCVSGGIVEEYQLPYHDLVPSDPSYEDMREIVCIKKLRPSFPNRWSSDECLRQMGKLMTECWAHNPASRLTALRVKKTLAKMSESQDIKL
partner: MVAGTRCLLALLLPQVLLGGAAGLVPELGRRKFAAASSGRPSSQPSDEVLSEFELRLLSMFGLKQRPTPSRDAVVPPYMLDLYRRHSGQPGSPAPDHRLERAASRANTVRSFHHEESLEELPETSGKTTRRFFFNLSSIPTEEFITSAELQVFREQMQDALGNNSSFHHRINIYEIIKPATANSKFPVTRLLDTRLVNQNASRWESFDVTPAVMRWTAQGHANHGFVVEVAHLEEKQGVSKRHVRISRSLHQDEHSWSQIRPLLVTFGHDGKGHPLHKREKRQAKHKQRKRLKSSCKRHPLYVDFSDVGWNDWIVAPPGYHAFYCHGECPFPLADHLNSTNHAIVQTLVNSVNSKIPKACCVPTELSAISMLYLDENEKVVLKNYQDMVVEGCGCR
B2: Bone morphogenetic protein receptor type-1B (Homo sapiens), O00238 (parent)
chain: B1 chain
partner: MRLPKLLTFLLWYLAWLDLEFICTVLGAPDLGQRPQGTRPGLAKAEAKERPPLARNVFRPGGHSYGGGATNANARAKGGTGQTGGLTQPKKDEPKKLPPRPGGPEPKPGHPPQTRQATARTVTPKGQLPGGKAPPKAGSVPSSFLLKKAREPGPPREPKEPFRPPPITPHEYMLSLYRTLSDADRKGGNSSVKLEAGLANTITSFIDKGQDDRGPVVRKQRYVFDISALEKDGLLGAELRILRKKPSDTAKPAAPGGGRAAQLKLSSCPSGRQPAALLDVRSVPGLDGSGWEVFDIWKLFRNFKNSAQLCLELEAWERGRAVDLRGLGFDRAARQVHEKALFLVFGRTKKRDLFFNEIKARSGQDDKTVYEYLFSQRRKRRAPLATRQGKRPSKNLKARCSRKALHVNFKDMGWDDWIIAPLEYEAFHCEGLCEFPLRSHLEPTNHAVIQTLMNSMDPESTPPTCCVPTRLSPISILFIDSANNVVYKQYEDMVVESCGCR
B3: Growth/differentiation factor 5 (Homo sapiens), P43026 (parent)
chain: B2 partner

Variants of: B1
Settings: with bmp2_human BMP2, P12643
In the case of MLLRSAGKLNVGTKKEDGESTAPTPRPKVLRCKCHHHCPEDSVNNICSTDGYCFTMIEEDDSGLPVVTSGCLGLEGSDAQCRDTPIPHQRRSIECCTERNECNKDLHPTLPPLKNRDFVDGPIHHRALLISVTVCSLLLVLIILFCYFRYKRQETRPRYSIGLEQDETYIPPGESLRDLIEQSQSSGSGSGLPLLVQRTIAKQIQMVKQIGKGRYGEVWMGKWRGEKVAVKVFFTTEEASWFRETEIYQTVLMRHENILGFIAADIKGTGSWTQLYLITDYHENGSLYDYLKSTTLDAKSMLKLAYSSVSGLCHLHTEIFSTQGKPAIAHRDLKSKNILVKKNGTCCIADLGLAVKFISDTNEVDIPPNTRVGTKRYMPPEVLDESLNRNHFQSYIMADMYSFGLILWEVARRCVSGGIVEEYQLPYHDLVPSDPSYEDMREIVCIKKLRPSFPNRWSSDECLRQMGKLMTECWAHNPASRLTALRVKKTLAKMSESQDIKL [F79A], the “effect of a mutation on the interaction” value is reported as “disrupting interaction”.

Variants of: B2
Settings: with gdf5_human GDF5, P43026
In the case of MLLRSAGKLNVGTKKEDGESTAPTPRPKVLRCKCHGHCPEDSVNNICSTDGYCFTMIEEDDSGLPVVTSGCLGLEGSDFQCRDTPIPHQRRSIECCTERNECNKDLHPTLPPLKNRDFVDGPIHHRALLISVTVCSLLLVLIILFCYFRYKRQETRPRYSIGLEQDETYIPPGESLRDLIEQSQSSGSGSGLPLLVQRTIAKQIQMVKQIGKGRYGEVWMGKWRGEKVAVKVFFTTEEASWFRETEIYQTVLMRHENILGFIAADIKGTGSWTQLYLITDYHENGSLYDYLKSTTLDAKSMLKLAYSSVSGLCHLHTEIFSTQGKPAIAHRDLKSKNILVKKNGTCCIADLGLAVKFISDTNEVDIPPNTRVGTKRYMPPEVLDESLNRNHFQSYIMADMYSFGLILWEVARRCVSGGIVEEYQLPYHDLVPSDPSYEDMREIVCIKKLRPSFPNRWSSDECLRQMGKLMTECWAHNPASRLTALRVKKTLAKMSESQDIKL [H36G], the “effect of a mutation on the interaction” value is reported as “decreasing interaction”.
MLLRSAGKLNVGTKKEDGESTAPTPRPKVLRCKCSHHCPEDSVNNICSTDGYCFTMIEEDDSGLPVVTSGCLGLEGSDFQCRDTPIPHQRRSIECCTERNECNKDLHPTLPPLKNRDFVDGPIHHRALLISVTVCSLLLVLIILFCYFRYKRQETRPRYSIGLEQDETYIPPGESLRDLIEQSQSSGSGSGLPLLVQRTIAKQIQMVKQIGKGRYGEVWMGKWRGEKVAVKVFFTTEEASWFRETEIYQTVLMRHENILGFIAADIKGTGSWTQLYLITDYHENGSLYDYLKSTTLDAKSMLKLAYSSVSGLCHLHTEIFSTQGKPAIAHRDLKSKNILVKKNGTCCIADLGLAVKFISDTNEVDIPPNTRVGTKRYMPPEVLDESLNRNHFQSYIMADMYSFGLILWEVARRCVSGGIVEEYQLPYHDLVPSDPSYEDMREIVCIKKLRPSFPNRWSSDECLRQMGKLMTECWAHNPASRLTALRVKKTLAKMSESQDIKL [H35S] was tested, and the “effect of a mutation on the interaction” value was “decreasing interaction”.

Variants of: B2
Settings: with gdf5_human GDF5, P43026
Remark: another data set of the same source
MLLRSAGKLNVGTKKEDGESTAPTPRPKVLRCKCHHHCPEDSVNNICSTDGYCFTMIEEDDSGLPVVTSGCLGLEGSDAQCRDTPIPHQRRSIECCTERNECNKDLHPTLPPLKNRDFVDGPIHHRALLISVTVCSLLLVLIILFCYFRYKRQETRPRYSIGLEQDETYIPPGESLRDLIEQSQSSGSGSGLPLLVQRTIAKQIQMVKQIGKGRYGEVWMGKWRGEKVAVKVFFTTEEASWFRETEIYQTVLMRHENILGFIAADIKGTGSWTQLYLITDYHENGSLYDYLKSTTLDAKSMLKLAYSSVSGLCHLHTEIFSTQGKPAIAHRDLKSKNILVKKNGTCCIADLGLAVKFISDTNEVDIPPNTRVGTKRYMPPEVLDESLNRNHFQSYIMADMYSFGLILWEVARRCVSGGIVEEYQLPYHDLVPSDPSYEDMREIVCIKKLRPSFPNRWSSDECLRQMGKLMTECWAHNPASRLTALRVKKTLAKMSESQDIKL [F79A] was tested, and the “effect of a mutation on the interaction” value was “disrupting interaction”.

Variants of: B2
Settings: with gdf5_human GDF5, P43026
Remark: another data set of the same source
In the case of MLLRSAGKLNVGTKKEDGESTAPTPRPKVLRCKCHHHCPEDSVNNICSTDGYCFTMIEEDDSGLPVVTSGCLGLEGSDFACRDTPIPHQRRSIECCTERNECNKDLHPTLPPLKNRDFVDGPIHHRALLISVTVCSLLLVLIILFCYFRYKRQETRPRYSIGLEQDETYIPPGESLRDLIEQSQSSGSGSGLPLLVQRTIAKQIQMVKQIGKGRYGEVWMGKWRGEKVAVKVFFTTEEASWFRETEIYQTVLMRHENILGFIAADIKGTGSWTQLYLITDYHENGSLYDYLKSTTLDAKSMLKLAYSSVSGLCHLHTEIFSTQGKPAIAHRDLKSKNILVKKNGTCCIADLGLAVKFISDTNEVDIPPNTRVGTKRYMPPEVLDESLNRNHFQSYIMADMYSFGLILWEVARRCVSGGIVEEYQLPYHDLVPSDPSYEDMREIVCIKKLRPSFPNRWSSDECLRQMGKLMTECWAHNPASRLTALRVKKTLAKMSESQDIKL [Q80A], the “effect of a mutation on the interaction” value is reported as “decreasing interaction”.

Variants of: B3
Settings: with bmpr2_human BMPR2, Q13873
Chain of bmpr2_human BMPR2, Q13873 (Q13873 whole entry): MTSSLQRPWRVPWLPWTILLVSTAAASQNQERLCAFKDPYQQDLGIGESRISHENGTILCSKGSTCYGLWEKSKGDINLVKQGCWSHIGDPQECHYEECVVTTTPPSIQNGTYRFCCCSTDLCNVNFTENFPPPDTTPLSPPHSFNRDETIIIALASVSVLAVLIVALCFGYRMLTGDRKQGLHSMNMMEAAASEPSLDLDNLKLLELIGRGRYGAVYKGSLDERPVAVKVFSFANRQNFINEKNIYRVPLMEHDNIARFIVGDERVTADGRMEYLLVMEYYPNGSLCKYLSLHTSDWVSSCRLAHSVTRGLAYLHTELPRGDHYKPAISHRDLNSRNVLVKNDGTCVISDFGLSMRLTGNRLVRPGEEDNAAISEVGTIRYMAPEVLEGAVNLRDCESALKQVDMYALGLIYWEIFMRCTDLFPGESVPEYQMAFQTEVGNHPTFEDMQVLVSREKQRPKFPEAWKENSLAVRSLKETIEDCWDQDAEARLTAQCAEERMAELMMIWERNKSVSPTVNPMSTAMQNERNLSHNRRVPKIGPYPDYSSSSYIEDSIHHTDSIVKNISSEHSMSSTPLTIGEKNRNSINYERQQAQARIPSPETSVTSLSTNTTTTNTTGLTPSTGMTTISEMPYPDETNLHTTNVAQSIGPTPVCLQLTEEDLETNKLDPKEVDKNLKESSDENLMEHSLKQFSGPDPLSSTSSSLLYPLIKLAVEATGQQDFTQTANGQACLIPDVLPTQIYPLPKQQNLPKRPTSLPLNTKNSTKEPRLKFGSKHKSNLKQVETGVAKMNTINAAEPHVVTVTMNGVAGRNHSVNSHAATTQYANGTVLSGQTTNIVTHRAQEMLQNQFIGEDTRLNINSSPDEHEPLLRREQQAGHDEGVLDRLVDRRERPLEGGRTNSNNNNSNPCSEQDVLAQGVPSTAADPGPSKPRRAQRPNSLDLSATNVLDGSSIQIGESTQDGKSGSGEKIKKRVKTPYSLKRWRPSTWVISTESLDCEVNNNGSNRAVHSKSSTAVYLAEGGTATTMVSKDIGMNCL
In the case of MRLPKLLTFLLWYLAWLDLEFICTVLGAPDLGQRPQGTRPGLAKAEAKERPPLARNVFRPGGHSYGGGATNANARAKGGTGQTGGLTQPKKDEPKKLPPRPGGPEPKPGHPPQTRQATARTVTPKGQLPGGKAPPKAGSVPSSFLLKKAREPGPPREPKEPFRPPPITPHEYMLSLYRTLSDADRKGGNSSVKLEAGLANTITSFIDKGQDDRGPVVRKQRYVFDISALEKDGLLGAELRILRKKPSDTAKPAAPGGGRAAQLKLSSCPSGRQPAALLDVRSVPGLDGSGWEVFDIWKLFRNFKNSAQLCLELEAWERGRAVDLRGLGFDRAARQVHEKALFLVFGRTKKRDLFFNEIKARSGQDDKTVYEYLFSQRRKRRAPLATRQGKRPSKNLKARCSRKALHVNFKDMGWDDWIIAPLEYEAFHCEGLCEFPLASHLEPTNHAVIQTLMNSMDPESTPPTCCVPTRLSPISILFIDSANNVVYKQYEDMVVESCGCR [R438A], the “effect of a mutation on the interaction” value is reported as “decreasing interaction”.
